# B1: Protein zyg-11 homolog B (Homo sapiens), Q9C0D3 (parent)
# chain: MPEDQAGAAMEEASPYSLLDICLNFLTTHLEKFCSARQDGTLCLQEPGVFPQEVADRLLRTMAFHGLLNDGTVGIFRGNQMRLKRACIRKAKISAVAFRKAFCHHKLVELDATGVNADITITDIISGLGSNKWIQQNLQCLVLNSLTLSLEDPYERCFSRLSGLRALSITNVLFYNEDLAEVASLPRLESLDISNTSITDITALLACKDRLKSLTMHHLKCLKMTTTQILDVVRELKHLNHLDISDDKQFTSDIALRLLEQKDILPNLVSLDVSGRKHVTDKAVEAFIQQRPSMQFVGLLATDAGYSEFLTGEGHLKVSGEANETQIAEALKRYSERAFFVREALFHLFSLTHVMEKTKPEILKLVVTGMRNHPMNLPVQLAASACVFNLTKQDLAAGMPVRLLADVTHLLLKAMEHFPNHQQLQKNCLLSLCSDRILQDVPFNRFEAAKLVMQWLCNHEDQNMQRMAVAIISILAAKLSTEQTAQLGTELFIVRQLLQIVKQKTNQNSVDTTLKFTLSALWNLTDESPTTCRHFIENQGLELFMRVLESFPTESSIQQKVLGLLNNIAEVQELHSELMWKDFIDHISSLLHSVEVEVSYFAAGIIAHLISRGEQAWTLSRSQRNSLLDDLHSAILKWPTPECEMVAYRSFNPFFPLLGCFTTPGVQLWAVWAMQHVCSKNPSRYCSMLIEEGGLQHLYNIKDHEHTDPHVQQIAVAILDSLEKHIVRHGRPPPCKKQPQARLN
# Variants of: B1
# Conditions: with eloc_human ELOC
row,Variant,effect of a mutation on the interaction
1,L18S,disrupting interaction
2,C22S,disrupting interaction

# — IntAct's records for PubMed 17304241
